Test results from patent publication US20260053963A1.

Molecular target: CD33 (human) (UniProt P20138)
Experiment: cell-based or functional assay

Chain of UniProt P20138 (P20138 18-364): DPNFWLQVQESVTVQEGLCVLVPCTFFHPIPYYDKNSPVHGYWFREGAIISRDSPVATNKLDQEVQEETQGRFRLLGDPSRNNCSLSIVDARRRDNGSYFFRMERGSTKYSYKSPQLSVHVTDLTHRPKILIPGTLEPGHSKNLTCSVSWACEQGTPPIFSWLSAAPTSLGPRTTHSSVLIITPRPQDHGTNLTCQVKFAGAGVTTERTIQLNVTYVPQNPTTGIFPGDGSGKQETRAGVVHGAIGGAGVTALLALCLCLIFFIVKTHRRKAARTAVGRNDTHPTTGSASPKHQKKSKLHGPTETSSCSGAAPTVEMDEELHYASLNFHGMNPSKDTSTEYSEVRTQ

## ^225Ac-labeled lintuzumab (^225Ac-labeled conjugate of p-SCN-Bn-DOTA and lintuzumab) (antibody; the values are: LD50)
  cytotoxicity on HL60 (leukemia cells): dose at which 50% of the cells were killed (LD50): 8 pCi/mL
